From article PMC10577934, “Semi-rational engineering an aldo–keto reductase for stereocomplementary reduction of α-keto amide compounds” (Microbial Cell Factories, 2023)

substrate: O=C(Nc1ccccc1)C(=O)c1ccccc1; experiment: initial velocity by HPLC of product, nonlinear Michaelis-Menten fit; format: biochemical, Bacillus subtilis; settings: NAD(P)H cofactor, potassium phosphate 100 mM pH 7.0, 30 °C
Description: initial velocity by HPLC of product, nonlinear Michaelis-Menten fit on iolS

| Protein | Km [µM] | kcat [s⁻¹] | kcat/Km [M⁻¹ s⁻¹] |
| --- | --- | --- | --- |
| iolS (Bacillus subtilis subsp. subtilis str. 168) (protein, pET28a, His-tagged, expressed in E. coli BL21(DE3), Ni-NTA purified) MKKAKLGKSDLQVFPIGLGTNAVGGHNLYPNLNEETGKELVREAIRNGVTMLDTAYIYGIGRSEELIGEVLREFNREDVVIATKAAHRKQGNDFVFDNSPDFLKKSVDESLKRLNTDYIDLFYIHFPDEHTPKDEAVNALNEMKKAGKIRSIGVSNFSLEQLKEANKDGLVDVLQGEYNLLNREAEKTFFPYTKEHNISFIPYFPLVSGLLAGKYTEDTTFPEGDLRNEQEHFKGERFKENIRKVNKLAPIAEKHNVDIPHIVLAWYLARPEIDILIPGAKRADQLIDNIKTADVTLSQEDISFIDKLFA | 1810 ± 130 | 3.53 ± 0.12 | 1950 |
| iolS (Bacillus subtilis subsp. subtilis str. 168; N21A) (protein, pET28a, His-tagged, expressed in E. coli BL21(DE3), Ni-NTA purified) MKKAKLGKSDLQVFPIGLGTAAVGGHNLYPNLNEETGKELVREAIRNGVTMLDTAYIYGIGRSEELIGEVLREFNREDVVIATKAAHRKQGNDFVFDNSPDFLKKSVDESLKRLNTDYIDLFYIHFPDEHTPKDEAVNALNEMKKAGKIRSIGVSNFSLEQLKEANKDGLVDVLQGEYNLLNREAEKTFFPYTKEHNISFIPYFPLVSGLLAGKYTEDTTFPEGDLRNEQEHFKGERFKENIRKVNKLAPIAEKHNVDIPHIVLAWYLARPEIDILIPGAKRADQLIDNIKTADVTLSQEDISFIDKLFA | 1160 ± 160 | 4.1 ± 0.12 | 3530 |
| iolS (Bacillus subtilis subsp. subtilis str. 168; I57F) (protein, pET28a, His-tagged, expressed in E. coli BL21(DE3), Ni-NTA purified) MKKAKLGKSDLQVFPIGLGTNAVGGHNLYPNLNEETGKELVREAIRNGVTMLDTAYFYGIGRSEELIGEVLREFNREDVVIATKAAHRKQGNDFVFDNSPDFLKKSVDESLKRLNTDYIDLFYIHFPDEHTPKDEAVNALNEMKKAGKIRSIGVSNFSLEQLKEANKDGLVDVLQGEYNLLNREAEKTFFPYTKEHNISFIPYFPLVSGLLAGKYTEDTTFPEGDLRNEQEHFKGERFKENIRKVNKLAPIAEKHNVDIPHIVLAWYLARPEIDILIPGAKRADQLIDNIKTADVTLSQEDISFIDKLFA | 1720 ± 130 | 3.96 ± 0.23 | 2320 |
| iolS (Bacillus subtilis subsp. subtilis str. 168; F126A/N21A) (protein, pET28a, His-tagged, expressed in E. coli BL21(DE3), Ni-NTA purified) MKKAKLGKSDLQVFPIGLGTAAVGGHNLYPNLNEETGKELVREAIRNGVTMLDTAYIYGIGRSEELIGEVLREFNREDVVIATKAAHRKQGNDFVFDNSPDFLKKSVDESLKRLNTDYIDLFYIHAPDEHTPKDEAVNALNEMKKAGKIRSIGVSNFSLEQLKEANKDGLVDVLQGEYNLLNREAEKTFFPYTKEHNISFIPYFPLVSGLLAGKYTEDTTFPEGDLRNEQEHFKGERFKENIRKVNKLAPIAEKHNVDIPHIVLAWYLARPEIDILIPGAKRADQLIDNIKTADVTLSQEDISFIDKLFA | 1650 ± 120 | 6.4 ± 0.25 | 3880 |
| iolS (Bacillus subtilis subsp. subtilis str. 168; F126L) (protein, pET28a, His-tagged, expressed in E. coli BL21(DE3), Ni-NTA purified) MKKAKLGKSDLQVFPIGLGTNAVGGHNLYPNLNEETGKELVREAIRNGVTMLDTAYIYGIGRSEELIGEVLREFNREDVVIATKAAHRKQGNDFVFDNSPDFLKKSVDESLKRLNTDYIDLFYIHLPDEHTPKDEAVNALNEMKKAGKIRSIGVSNFSLEQLKEANKDGLVDVLQGEYNLLNREAEKTFFPYTKEHNISFIPYFPLVSGLLAGKYTEDTTFPEGDLRNEQEHFKGERFKENIRKVNKLAPIAEKHNVDIPHIVLAWYLARPEIDILIPGAKRADQLIDNIKTADVTLSQEDISFIDKLFA | 1550 ± 220 | 3.81 ± 0.13 | 2450 |
| iolS (Bacillus subtilis subsp. subtilis str. 168; F126L/I57F) (protein, pET28a, His-tagged, expressed in E. coli BL21(DE3), Ni-NTA purified) MKKAKLGKSDLQVFPIGLGTNAVGGHNLYPNLNEETGKELVREAIRNGVTMLDTAYFYGIGRSEELIGEVLREFNREDVVIATKAAHRKQGNDFVFDNSPDFLKKSVDESLKRLNTDYIDLFYIHLPDEHTPKDEAVNALNEMKKAGKIRSIGVSNFSLEQLKEANKDGLVDVLQGEYNLLNREAEKTFFPYTKEHNISFIPYFPLVSGLLAGKYTEDTTFPEGDLRNEQEHFKGERFKENIRKVNKLAPIAEKHNVDIPHIVLAWYLARPEIDILIPGAKRADQLIDNIKTADVTLSQEDISFIDKLFA | 1710 ± 110 | 4.32 ± 0.14 | 2510 |
